How the values were obtained:
B8_BP_dslf = biological target: T1, B8_BP_dslf; experiment: BLI; Octet RED96; His-tagged and Avi-tagged minibinders immobilised on Ni-NTA and streptavidin sensor tips, dipped into wells with different concentrations of integrin; association 900 s, dissociation 1200 s; details: both partners purified
T1 construct: de novo designed RGD miniprotein with redesigned, extended β-loop and the motif MAVY in place of LXX(L/I); For BLI His-tagged (Ni-NTA tips) or N-terminally Avi-tagged, biotinylated (streptavidin tips); The methods of model building name a design model 'B8_BP2_dslf'; also called MAVY; source: E. coli BL21(DE3*), purified (Ni-NTA, SEC); not shown: His tag, C-terminal, kept

B8_BP-LATY = biological target: T2, B8_BP-LATY; experiment: as above; details: both partners purified
T2 construct: positions 13-16 worked out from the printed Y16; source: E. coli BL21(DE3*), purified (Ni-NTA, SEC); not shown: His tag, C-terminal, kept
T2 sequence (main, as listed by the source): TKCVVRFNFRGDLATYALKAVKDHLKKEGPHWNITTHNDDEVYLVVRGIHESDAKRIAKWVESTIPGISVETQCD

B1: human integrin αvβ8 (soluble, construct not stated) (complex)
chain 1: FNLDVDSPAEYSGPEGSYFGFAVDFFVPSASSRMFLLVGAPKANTTQPGIVEGGQVLKCDWSSTRRCQPIEFDATGNRDYAKDDPLEFKSHQWFGASVRSKQDKILACAPLYHWRTEMKQEREPVGTCFLQDGTKTVEYAPCRSQDIDADGQGFCQGGFSIDFTKADRVLLGGPGSFYWQGQLISDQVAEIVSKYDPNVYSIKYNNQLATRTAQAIFDDSYLGYSVAVGDFNGDGIDDFVSGVPRAARTLGMVYIYDGKNMSSLYNFTGEQMAAYFGFSVAATDINGDDYADVFIGAPLFMDRGSDGKLQEVGQVSVSLQRASGDFQTTKLNGFEVFARFGSAIAPLGDLDQDGFNDIAIAAPYGGEDKKGIVYIFNGRSTGLNAVPSQILEGQWAARSGCPPSFGYSMKGATDIDKNGYPDLIVGAFGVDRAILYRARPVITVNAGLEVYPSILNQDNKTCSLPGTALKVSCFNVRFCLKADGKGVLPRKLNFQVELLLDKLKQKGAIRRALFLYSRSPSHSKNMTISRGGLMQCEELIAYLRDESEFRDKLTPITIFMEYRLDYRTAADTTGLQPILNQFTPANISRQAHILL
chain 2: EDNRCASSNAASCARCLALGPECGWCVQEDFISGGSRSERCDIVSNLISKGCSVDSIEYPSVHVIIPTENEINTQVTPGEVSIQLRPGAEANFMLKVHPLKKYPVDLYYLVDVSASMHNNIEKLNSVGNDLSRKMAFFSRDFRLGFGSYVDKTVSPYISIHPERIHNQCSDYNLDCMPPHGYIHVLSLTENITEFEKAVHRQKISGNIDTPEGGFDAMLQAAVCESHIGWRKEAKRLLLVMTDQTSHLALDSKLAGIVCPNDGNCHLKNNVYVKSTTMEHPSLGQLSEKLIDNNINVIFAVQGKQFHWYKDLLPLLPGTIAGEIESKAANLNNLVVEAYQKLISEVKVQVENQVQGIYFNITAICPDGSRKPGMEGCRNVTSNDEVLFNVTVTMKKCDVTGGKNYAIIKPIGFNETAKIHI
- Kd (B8_BP_dslf): 1.9 nM
- Kd (B8_BP-LATY): 0.5 nM

Reference: article PMC10500007, “De novo design of highly selective miniprotein inhibitors of integrins αvβ6 and αvβ8” (Nature Communications, 2023)
